Here are results for two molecules from patent US20190077867A1 (REYOUNG SUZHOU BIOLOGY SCIENCE AND TECHNOLOGY, published 2019).

In one experiment the target is T1, B7-1 (Homo sapiens (Human), UniProt P33681 35-242).
T1 construct: probably human
T1 sequence: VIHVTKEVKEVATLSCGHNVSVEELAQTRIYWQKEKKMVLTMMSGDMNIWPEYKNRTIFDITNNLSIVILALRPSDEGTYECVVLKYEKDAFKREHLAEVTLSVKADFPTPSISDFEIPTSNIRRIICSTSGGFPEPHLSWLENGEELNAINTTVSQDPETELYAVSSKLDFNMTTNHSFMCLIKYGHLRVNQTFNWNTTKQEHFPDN
In words: ELISA on coated protein, goat anti-human FAB-HRP, OD450. How it is done: The binding of B7 family members B7-1, B7-2 to PD-L2 protein, and the binding of mouse, M. fascicularis and human PD-L1 protein to humanized antibody anti-PD-L1-1 are tested. Different proteins are stored at […] in enveloping buffer at 4° C. overnight. Remove the solution in wells the next day and wash with PBST for twice. Then add 1% BSA, seal at 37° C. for 1 hour, then wash with PBST for twice. Add 0.5 μg/mL antibody samples, incubate for 1 hour, and wash with PBST for three times. Dilute with goat anti-human FAB-HRP at ratio of 1:10000, incubate for 1 hour at 37 C, and wash with PBST for three times. Add TMB for 15 min coloration, stop the reaction with 0.5M H₂SO₄ and read out the absorbance at 450 nm.
(In general: In an ELISA, binding on a coated surface is turned into a signal by an enzyme label.)

Experiment [1] concerns the target T2, recombinant human PD-L1 fusion protein (human, UniProt Q9NZQ7 19-238).
T2 construct: This may be the same reagent as hPD-L1-Fc
In words: competition ELISA on coated recombinant human PD-L1 fusion protein, PD1-Fc-Biotin as competitor, streptavidin-HRP. How it is done:
The recombinant human PD-L1 fusion protein of 0.5 μg/mL is stored at 4° C. overnight in enveloping buffer. Remove the solution in wells the next day and wash with PBST for twice. Then add 1% BSA, seal at 37° C. for 1 hour, then wash with PBST for twice. The antibody is diluted 2.5 folds starting from 10 μg/mL for 8 concentration gradients, mixed with same volume of 1 μg/mL PD1-Fc-Biotin, incubated at 25° C. for 1 hour, and washed with PBST for one time. Incubate with goat streptavidin-HRP at ratio of 1:10000 for 1 hour at 37 C, and wash with PBST for three times. Add TMB for 15 min coloration, stop the reaction with 0.5M H₂SO₄ and read out the absorbance at 450 nm.

Experiment [2] has as its target T2, recombinant human PD-L1 fusion protein. Description: ELISA, recombinant human PD-L1 fusion protein coated, antibody after 0 days in monkey serum at 37 °C, goat anti-human FAB-HRP, OD450. How it is done:
(§1) The recombinant human PD-L1 fusion protein is stored at the concentration of 0.5 μg/mL at 4° C. overnight in enveloping buffer. Remove the solution in wells the next day and wash with PBST for twice. Then add 1% BSA, seal at 37° C. for 1 hour, then wash with PBST for twice. The stable antibody samples are diluted three folds starting from 1 μg/mL for 8 concentration gradients, incubated at 37° C. for 1 hour, and washed with PBST for three times. Dilute with goat anti-human FAB-HRP at ratio of 1:10000, incubate for 1 hour at 37 C, and wash with PBST for three times. Add TMB for 15 min coloration, stop the reaction with 0.5M H₂SO₄ and read out the absorbance at 450 nm.

The target is the same in experiment [3]. In words: ELISA, recombinant human PD-L1 fusion protein coated, antibody after 7 days in monkey serum at 37 °C, goat anti-human FAB-HRP, OD450. How it is done:
as §1

For experiment [4] the target is unchanged. In words: ELISA, recombinant human PD-L1 fusion protein coated, antibody after 4 days in monkey serum at 37 °C, goat anti-human FAB-HRP, OD450. How it is done: as §1
Experiment [5] shares this target. Description: ELISA, recombinant human PD-L1 fusion protein coated, antibody after 1 day in monkey serum at 37 °C, goat anti-human FAB-HRP, OD450. How it is done: as §1
The target is the same in experiment [6]. Description: ELISA on coated recombinant human PD-L1 fusion protein, goat anti-human FAB-HRP. How it is done:
The recombinant human PD-L1 fusion protein of 0.5 μg/mL is stored at 4° C. overnight in enveloping buffer. Remove the solution in wells the next day and wash with PBST for twice. Then add 1% BSA and seal at 37° C. for 1 hour. Wash with PBST for twice. The antibody is diluted three folds starting from 5 μg/mL for 8 concentration gradients, incubated at 25° C. for 1 hour, and washed with PBST for three time. Dilute with goat anti-human FAB-HRP at ratio of 1:10000, incubate for 1 hour at 37 C, and wash with PBST for three times. Add TMB for 15 min coloration, stop the reaction with 0.5M H₂SO₄ and read out the absorbance at 450 nm.

In experiment [7] the target is T3, recombinant human PD-L1 expressed on the surface of CHO cells (human, UniProt Q9NZQ7 19-290).
T3 construct: whole, on cells; also called CHO cells transfected by PD-L1; CHO cells with PD-L1 expressed on the surface
T3 sequence (Q9NZQ7 19-290): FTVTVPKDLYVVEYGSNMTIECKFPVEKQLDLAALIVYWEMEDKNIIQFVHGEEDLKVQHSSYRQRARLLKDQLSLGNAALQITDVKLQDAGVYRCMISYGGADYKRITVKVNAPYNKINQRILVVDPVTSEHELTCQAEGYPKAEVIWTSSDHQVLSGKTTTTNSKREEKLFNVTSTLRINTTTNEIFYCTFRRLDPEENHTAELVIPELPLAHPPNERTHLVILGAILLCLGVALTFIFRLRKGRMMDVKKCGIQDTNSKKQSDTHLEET
Description: cell ELISA on CHO cells expressing human PD-L1, anti-human-Eu fluorescence. How it is done: A Chinese hamster ovary (CHO) cell line expressing recombinant human PD-L1 on cell surface is constructed and its binding specificity to humanized antibody anti-PD-L1-1 is determined by ELISA assay. The cells are overlaid on PD-L1 the day before the test, and 1/200 cells are filled with T75 bottles on each well. Then add 1% BSA and seal at 37° C. for 1 hour. The antibody is diluted three folds starting from 5 μg/mL for 8 concentration gradients, incubated at 25° C. for 1 hour, and washed with PBST for one time. The volume of 50 ng/mL anti-human-Eu added to each well is 100 μL, with reaction time of 0.5 hours at 25° C., and washing with PBS for one time. Add fluorescence enhancement liquid and read values at exciting light 337 nm/emitted light 620 nm.

The target in experiment [8] is T4, hPD-L1-Fc (human, UniProt Q9NZQ7 19-238, limits assumed).
T4 construct: Plate-coated antigen in the Embodiment 1 ELISAs
T4 sequence (Q9NZQ7 19-238 limits assumed): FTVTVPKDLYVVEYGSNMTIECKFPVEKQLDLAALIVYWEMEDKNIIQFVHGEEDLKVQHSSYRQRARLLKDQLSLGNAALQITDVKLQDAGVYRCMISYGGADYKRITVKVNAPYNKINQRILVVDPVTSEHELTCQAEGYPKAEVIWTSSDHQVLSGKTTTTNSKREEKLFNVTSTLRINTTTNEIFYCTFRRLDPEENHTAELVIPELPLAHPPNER
Description: competition ELISA: antibody pre-incubated with hPD-L1-Fc-Biotin, added to a plate printed as coated with hPD-L1-Fc, SA-HRP. How it is done:
B. ELISA Inhibitory Activity [0086] Incubate the gradient diluted antibody and a certain concentration of hPD-L1-Fc-Biotin, then add the mixture to the plate enveloped with hPD-L1-Fc. Add SA-HRP to the plate after incubating and washing. Then perform coloration. Draw up the reaction curve by fitting of readings (see FIG. 2 for results) to calculate the IC50 value.

The target in experiment [9] is T4, hPD-L1-Fc. In words: ELISA on coated hPD-L1-Fc, goat anti-mouse-HRP. How it is done:
A. ELISA Binding Activity [0084] Envelop hPD-L1-Fc on the plate, add gradient diluted antibody, incubate and wash it, and then add goat anti-mouse-HRP, perform coloration, and draw up the reaction curve by fitting of readings (the results as shown in FIG. 1) to calculate the EC50 value.

Experiment [10] concerns the target T5, hPD-L1 on hPD-L1-Fc over-expressed cells (human, UniProt Q9NZQ7 19-290).
T5 construct: whole, on cells; also called over-expressed hPD-L1-Fc cells
In words: cell binding on hPD-L1-Fc over-expressed cells, anti-mouse-EU fluorescence. From the text:
C. Cell Binding Activity [0088] Lay hPD-L1-Fc over-expressed cells on the cell plate for culture inspection one day ahead of schedule. After closure on the next day, add gradient-diluted antibody, then anti-mouse-EU. And then obtain the readings.

Experiment [11] concerns the target T5, hPD-L1 on hPD-L1-Fc over-expressed cells. Description: cell inhibition assay: cells printed as PD1-27 (PD1 over-expressed CHO-K1), antibody, PD1-Fc-Biotin as competitor, Europium-labeled streptavidin. From the text:
D. Cell Inhibitory Activity [0090] Lay PD1-27 (PD1 over-expressed CHO-K1 stable transfected cells) on the cell plate for culture inspection one day ahead of schedule. After closure on the next day, add gradient-diluted antibody, then PD1-Fc-Biotin, then Europium-labeled streptavidin, and obtain the readings.

T2 sequence (Q9NZQ7 19-238): as the sequence (Q9NZQ7 19-238 limits assumed) above
T5 sequence (Q9NZQ7 19-290): as the sequence (Q9NZQ7 19-290) above

B1: humanized antibody anti-PD-L1-1 (antibody, V domains shown)
VH: EVQLVQSGAEVKKPGASVKVSCKASGYTFTKYIIHWVRQAPGQGLEWMGWFYPGSGNIRYNEKIKGRVTMTRDTSTSTVYMELSSLRSEDTAVYYCARHGELGGGYFFDYWGQGTTVTVSS
VL: DIQLTQSPSFLSASVGDRVTITCRASSSVSNIHWYQQKPGKAPKPWIYATSNLASGVPSRFSGSGSGTEFTLTISSLQPEDFATYYCQQWSSNPLTFGQGTKLEIKR
notes: Expressed in CHO-KSM4 cells; also called humanized PD-L1 antibody
Consider B1, for which, in the experiment with B7-1, the binding result is “no binding (tested: 0.5 µg/mL antibody)”. In [1], the IC50 (usually the concentration that gives 50% inhibition) was 0.0432 µg/mL. Further, the “EC50 (read off the curve)” value in experiment [2], in experiment [3], in experiment [4] and in [5] was roughly 0.04 µg/mL throughout. In addition, the EC50 – broadly, the concentration needed to bring the measured effect to its halfway point – is 0.0195 µg/mL in experiment [6] and 0.0935 µg/mL in experiment [7].

B2: mouse anti-PD-L1 (antibody, V domains shown)
VH: KVQLQQSGAELVKPGASVKLSCKASGYTFTKYIIHWIKQRSGQGLEWIGWFYPGSGNIRYNEKIKGKATLTADKSSSTVYMELSGLTSEDSAVYFCARHGELGGGYFFDYWGQGTTLTVSS
VL: QIVLSQSPTILSASPGEKVTMTCRASSSVSNIHWYQQKTGSSPKPWIYATSNLASGAPVRFSGSGSGTSYSLTISRVEAEDAATYYCQQWSSNPLTFGPGTKLELKR
notes: also called mouse PD-L1 antibody; mouse anti-PD-L1 monoclonal antibody
B2: the IC50 with hPD-L1-Fc [8] was found to be 860 pM; in experiment [11], 0.638 µg/mL. For the same molecule, the results for the EC50 (in the experiment with hPD-L1-Fc [9]; in experiment [10]) were 0.00167 µg/mL and 0.0303 µg/mL, respectively.
